Source: patent US20140087995A1 (published 2014)
Numbered stars: 1 amine (or outer) side, 2 acyl side, 3 side chain; on linkers, the order of the positions; unused ones are H or OH. Bridge positions count the residues as written; N and C are the ends. * marks the point of attachment. C20 diacid = O=C(O)CCCCCCCCCCCCCCCCCCC(=O)*; γGlu = O=C(O)[C@H](CCC(=O)[*:2])N[*:1]

T1: human amylin receptor (amylin 3(a) receptor: human calcitonin receptor with RAMP-3) (human, UniProt P30988 25-474; O60896 24-148)
T1 construct: whole, on cells; also called hAmylin-R; hAmylinR
T1 sequence (looked up) 1: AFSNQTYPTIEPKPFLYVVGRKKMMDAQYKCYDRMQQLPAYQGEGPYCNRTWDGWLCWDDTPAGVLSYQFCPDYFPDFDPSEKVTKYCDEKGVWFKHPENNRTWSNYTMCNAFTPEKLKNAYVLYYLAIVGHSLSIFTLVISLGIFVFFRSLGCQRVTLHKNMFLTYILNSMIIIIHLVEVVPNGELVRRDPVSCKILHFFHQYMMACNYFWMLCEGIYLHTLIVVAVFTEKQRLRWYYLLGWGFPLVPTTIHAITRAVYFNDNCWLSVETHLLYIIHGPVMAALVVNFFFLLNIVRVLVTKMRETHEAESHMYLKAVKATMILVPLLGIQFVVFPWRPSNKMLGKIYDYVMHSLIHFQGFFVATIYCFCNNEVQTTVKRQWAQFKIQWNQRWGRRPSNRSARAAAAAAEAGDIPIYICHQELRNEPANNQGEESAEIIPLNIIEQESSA
T1 sequence (looked up) 2: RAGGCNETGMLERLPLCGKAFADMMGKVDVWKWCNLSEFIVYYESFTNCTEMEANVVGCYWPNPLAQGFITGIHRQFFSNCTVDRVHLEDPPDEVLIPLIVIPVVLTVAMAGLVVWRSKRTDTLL

T2: human amylin 3(a) receptor (human calcitonin receptor co-expressed with RAMP-3) (human, UniProt P30988 25-474; O60896 24-148, limits assumed)
T2 sequence (looked up) 1: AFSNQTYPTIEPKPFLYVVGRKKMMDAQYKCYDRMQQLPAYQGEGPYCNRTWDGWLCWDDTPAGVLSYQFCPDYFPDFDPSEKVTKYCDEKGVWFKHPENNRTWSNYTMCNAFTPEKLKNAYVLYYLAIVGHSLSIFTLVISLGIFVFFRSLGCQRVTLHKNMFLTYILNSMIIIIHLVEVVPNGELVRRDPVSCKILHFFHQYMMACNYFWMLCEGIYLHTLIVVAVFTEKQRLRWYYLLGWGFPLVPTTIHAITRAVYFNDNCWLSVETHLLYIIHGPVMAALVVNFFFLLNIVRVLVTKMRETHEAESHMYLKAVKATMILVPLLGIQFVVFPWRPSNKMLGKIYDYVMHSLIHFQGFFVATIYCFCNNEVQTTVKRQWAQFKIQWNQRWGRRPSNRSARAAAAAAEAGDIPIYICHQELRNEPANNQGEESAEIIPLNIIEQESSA
T2 sequence (looked up) 2: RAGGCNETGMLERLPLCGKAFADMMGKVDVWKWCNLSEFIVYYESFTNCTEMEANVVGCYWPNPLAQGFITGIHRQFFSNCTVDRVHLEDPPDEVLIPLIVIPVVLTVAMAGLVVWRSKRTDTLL


Experiments:
[1] = biological target: T1, human amylin receptor (amylin 3(a) …); test: SPA displacement of 125I-rat amylin, hAmylin 3(a) receptor membranes
How it was run: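 SPA beads + BHK amylin 3(a)/CRE-luc membranes, 35 ng/μL final; buffer 50 mM Hepes pH 7.4, 1 mM CaCl2, 5 mM MgCl₂, 0.1% OA, 0.02% Tween20. 120 min, 25° C, shaken; scintillation count. IC₅₀ by one-site binding competition fit, taken as receptor affinity.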

[2] = biological target: T2, human amylin 3(a) receptor (human …); test: cell-based or functional assay

Binder | IC50 [1] | Ratio hCT/hAmylin funct. (hCTR EC50 over hAmylin-R EC50) [2] | hAmylin-R funct. EC50 (pM) [2]
{C20 diacid-γGlu}-GRCNTATCATQRLANFLRHSSPNFGAIPSSTNVGSHTY-NH2 (disulfide 3-8; SMILES CC[C@H](C)[C@H](NC(=O)[C@H](C)NC(=O)CNC(=O)[C@H](Cc1ccccc1)NC(=O)[C@H](CC(N)=O)NC(=O)[C@@H]1CCCN1C(=O)[C@H](CO)NC(=O)[C@H](CO)NC(=O)[C@H](Cc1c[nH]cn1)NC(=O)[C@H](CCCNC(=N)N)NC(=O)[C@H](CC(C)C)NC(=O)[C@H](Cc1ccccc1)NC(=O)[C@H](CC(N)=O)NC(=O)[C@H](C)NC(=O)[C@H](CC(C)C)NC(=O)[C@H](CCCNC(=N)N)NC(=O)[C@H](CCC(N)=O)NC(=O)[C@@H](NC(=O)[C@H](C)NC(=O)[C@@H]1CSSC[C@H](NC(=O)[C@H](CCCNC(=N)N)NC(=O)CNC(=O)CC[C@H](NC(=O)CCCCCCCCCCCCCCCCCCC(=O)O)C(=O)O)C(=O)N[C@@H](CC(N)=O)C(=O)N[C@@H]([C@@H](C)O)C(=O)N[C@@H](C)C(=O)N[C@@H]([C@@H](C)O)C(=O)N1)[C@@H](C)O)C(=O)N1CCC[C@H]1C(=O)N[C@@H](CO)C(=O)N[C@@H](CO)C(=O)N[C@H](C(=O)N[C@@H](CC(N)=O)C(=O)N[C@H](C(=O)NCC(=O)N[C@@H](CO)C(=O)N[C@@H](Cc1c[nH]cn1)C(=O)N[C@H](C(=O)N[C@@H](Cc1ccc(O)cc1)C(N)=O)[C@@H](C)O)C(C)C)[C@@H](C)O, also called 47; compound 47) | 0.344 nM | – | –
{C20 diacid-γGlu}-GRCNTATCATQRLANFLRHSSPNFGAIPSSTNVGSNTY-NH2 (disulfide 3-8; SMILES CC[C@H](C)[C@H](NC(=O)[C@H](C)NC(=O)CNC(=O)[C@H](Cc1ccccc1)NC(=O)[C@H](CC(N)=O)NC(=O)[C@@H]1CCCN1C(=O)[C@H](CO)NC(=O)[C@H](CO)NC(=O)[C@H](Cc1c[nH]cn1)NC(=O)[C@H](CCCNC(=N)N)NC(=O)[C@H](CC(C)C)NC(=O)[C@H](Cc1ccccc1)NC(=O)[C@H](CC(N)=O)NC(=O)[C@H](C)NC(=O)[C@H](CC(C)C)NC(=O)[C@H](CCCNC(=N)N)NC(=O)[C@H](CCC(N)=O)NC(=O)[C@@H](NC(=O)[C@H](C)NC(=O)[C@@H]1CSSC[C@H](NC(=O)[C@H](CCCNC(=N)N)NC(=O)CNC(=O)CC[C@H](NC(=O)CCCCCCCCCCCCCCCCCCC(=O)O)C(=O)O)C(=O)N[C@@H](CC(N)=O)C(=O)N[C@@H]([C@@H](C)O)C(=O)N[C@@H](C)C(=O)N[C@@H]([C@@H](C)O)C(=O)N1)[C@@H](C)O)C(=O)N1CCC[C@H]1C(=O)N[C@@H](CO)C(=O)N[C@@H](CO)C(=O)N[C@H](C(=O)N[C@@H](CC(N)=O)C(=O)N[C@H](C(=O)NCC(=O)N[C@@H](CO)C(=O)N[C@@H](CC(N)=O)C(=O)N[C@H](C(=O)N[C@@H](Cc1ccc(O)cc1)C(N)=O)[C@@H](C)O)C(C)C)[C@@H](C)O, also called 46; compound 46) [N^-1-[(4S)-4-carboxy-4-(19-carboxynonadecanoylamino)butanoyl]-Gly[Arg1,Arg17,Pro21,Pro27]-h-amylin] | 0.195 nM | – | –
KCNTATCATQRLAEFLRHSSPNFGAIPSSTNVGSNTY (alpha-amino group of N-terminal Lys1 acylated with C20 diacid via linker gGlu-2xOEG; disulfide bridge Cys2-Cys7 and C-terminal amide as in human amylin, also called compound 19) | – | 17.4 | 307 pM
KCNTATCATQRLANFLRHSSPNFGAIPSSTNVGHNTY (alpha-amino group of N-terminal Lys1 acylated with C20 diacid via linker gGlu; disulfide bridge Cys2-Cys7 and C-terminal amide as in human amylin, also called compound 40) [N^α1-[(4S)-4-carboxy-4-(19-carboxynonadecanoylamino)butanoyl]-[Arg17,Pro21,Pro27,His34]-h-amylin] | – | 16.4 | 164 pM
